From the supplement of paper PMC9112550, “Optimization of the antimicrobial peptide Bac7 by deep mutational scanning” (BMC Biology, 2022)

System: Escherichia coli TOP10
Test: shrunken log2 fold change of peptide-encoding DNA abundance (4.5 h post-induction vs induction); higher = less antimicrobial activity (less host growth inhibition)
Conditions: time post-induction: 4.5 h; library: site-saturation at positions 5, 18, 19, 20
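Also: peptides expressed intracellularly from a pBAD plasmid library in pooled LB shake-flask culture, induced with 0.3% L-arabinose, DNA abundance read by NGS, three biological replicates, DESeq2 with apeglm shrinkage.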

Sequence	shrunken log2 fold change
RRIRARPPRLPRPRPRPYFKPRP	-0.551
RRIRARPPRLPRPRPRPYGGPRP	-0.221
RRIRARPPRLPRPRPRPYHHPRP	-0.826
RRIRARPPRLPRPRPRPYHYPRP	-0.0868
RRIRARPPRLPRPRPRPYIMPRP	-0.675
RRIRARPPRLPRPRPRPYKGPRP	-0.144
RRIRARPPRLPRPRPRPYKWPRP	-0.393
RRIRARPPRLPRPRPRPYMIPRP	-0.494
RRIRARPPRLPRPRPRPYNAPRP	-1.2
RRIRARPPRLPRPRPRPYPYPRP	-0.152
RRIRARPPRLPRPRPRPYRAPRP	-0.141
RRIRARPPRLPRPRPRPYRRPRP	-0.174
RRIRARPPRLPRPRPRPYSEPRP	-0.339
RRIRARPPRLPRPRPRPYTAPRP	-0.0946
RRIRARPPRLPRPRPRPYTWPRP	-0.428
RRIRARPPRLPRPRPRPYYKPRP	-0.675
RRIRCRPPRLPRPRPRPAAHPRP	0.37
RRIRCRPPRLPRPRPRPADCPRP	-0.0557
RRIRCRPPRLPRPRPRPADFPRP	1.07
RRIRCRPPRLPRPRPRPADIPRP	-0.941

Sequence	shrunken log2 fold change
RRIRCRPPRLPRPRPRPADWPRP	0.29
RRIRCRPPRLPRPRPRPAECPRP	-0.223
RRIRCRPPRLPRPRPRPAEDPRP	0.213
RRIRCRPPRLPRPRPRPAEMPRP	-0.0594
RRIRCRPPRLPRPRPRPAFGPRP	0.194
RRIRCRPPRLPRPRPRPAGIPRP	-0.0496
RRIRCRPPRLPRPRPRPAGWPRP	0.719
RRIRCRPPRLPRPRPRPALCPRP	0.185
RRIRCRPPRLPRPRPRPALMPRP	-0.011
RRIRCRPPRLPRPRPRPAMNPRP	-0.0385
RRIRCRPPRLPRPRPRPANAPRP	-0.0408
RRIRCRPPRLPRPRPRPANMPRP	-0.277
RRIRCRPPRLPRPRPRPAPGPRP	0.75
RRIRCRPPRLPRPRPRPAQFPRP	0.0313
RRIRCRPPRLPRPRPRPAQGPRP	0.631
RRIRCRPPRLPRPRPRPAQPPRP	0.366
RRIRCRPPRLPRPRPRPASFPRP	-0.176
RRIRCRPPRLPRPRPRPASYPRP	-0.295
RRIRCRPPRLPRPRPRPATAPRP	0.41
RRIRCRPPRLPRPRPRPAVDPRP	0.449

Sequence	shrunken log2 fold change
RRIRCRPPRLPRPRPRPAVLPRP	-0.218
RRIRCRPPRLPRPRPRPAWDPRP	0.235
RRIRCRPPRLPRPRPRPAYPPRP	-0.149
RRIRCRPPRLPRPRPRPCCDPRP	-0.27
RRIRCRPPRLPRPRPRPCEDPRP	-0.219
RRIRCRPPRLPRPRPRPCEFPRP	-0.0925
RRIRCRPPRLPRPRPRPCEGPRP	0.0324
RRIRCRPPRLPRPRPRPCEKPRP	0.0534
RRIRCRPPRLPRPRPRPCFKPRP	-0.603
RRIRCRPPRLPRPRPRPCFMPRP	-0.416
RRIRCRPPRLPRPRPRPCFWPRP	0.216
RRIRCRPPRLPRPRPRPCHAPRP	-0.191
RRIRCRPPRLPRPRPRPCHTPRP	0.00624
RRIRCRPPRLPRPRPRPCICPRP	-0.105
RRIRCRPPRLPRPRPRPCMAPRP	-0.427
RRIRCRPPRLPRPRPRPCMYPRP	-0.0898
RRIRCRPPRLPRPRPRPCNCPRP	-0.278
RRIRCRPPRLPRPRPRPCNIPRP	-0.3
RRIRCRPPRLPRPRPRPCPVPRP	-0.28
RRIRCRPPRLPRPRPRPCPYPRP	-0.215
